Data as given in patent publication US20250313627A1 (FUSE BIOTHERAPEUTICS, published 2025).

What was measured:
[1] = biological target: T1, recombinant His tagged human ROR1 (human, UniProt Q01973 30-403, limits assumed); assay: BLI (Octet), FUSE protein loaded on the biosensor, His tagged ROR1 in solution
T1 construct: Analyte in the BLI assay; also called Human ROR1-His; recombinant ROR1
Description: (§1) As shown in FIGS. 5A-5D, the binding affinities (KD) of TCEs for ROR1 were assessed. We examined the magnitude by which several TCEs and mutants thereof bind to recombinant ROR1. Kinetic binding graphs were generated via Bio-Layer Interferometry (BLI) using an Octet system. For each TCE, the biosensor tips were coated with FUSE proteins at 15 μg/ml and probed with either recombinant His tagged ROR1 at concentrations ranging from 100 pM to 10 μM. […] The binding affinity (KD), on rate (k-on) and off rate (k-dis), are summarized for ROR1 in FIG. 5D.
(§2) Antibodies were prepared in 1×PBS with 0.02% Tween-20 with the final concentration of 15 ug/ml. Human ROR1-His or CD3e-His protein were also prepared, and serial diluted (4-fold dilution ranging from 400 nM to 0.098 nM) in 1×PBS with 0.02% Tween-20. The biosensors were pre-moistened in 200 uL of 1×PBS with 0.02% Tween-20 for 10 minutes. Meanwhile, Octet BLI system (ForteBio) was prewarmed for 30 minutes and the flow rate was set to 1000 rpm. The biosensors (Anti-hIgG Fc Capture biosensor) were soaked in 250 uL of 1×PBS with 0.02% Tween-20 for 60 seconds at 30° C. to get an initial baseline reading. After the 60-second baseline reading, the biosensors were exposed to testing antibody for 300 seconds at 30° C. for the association between antibody and the biosensors (coupling antibody with biosensor). The biosensors with antibody were then exposed to human ROR1 or CD3e in 250 uL of 1×PBS with 0.02% Tween-20 at 30° C. for 300 seconds for the association reaction between antibody and human ROR1 or CD3e (association curve). After 300-second association reaction between antibody and antigen, the biosensors with antibody and antigen were then exposed to 250 uL of 1×PBS with 0.02% Tween-20 at 30° C. for 300 seconds for the dissociation reaction between antibody and […]. The binding affinity was calculated by the built-in data fitting algorithm.

[2] = biological target: T1, recombinant His tagged human ROR1; assay: BLI (Octet), FUSE protein loaded on the biosensor, His tagged ROR1 in solution; column 'kdis(1/s)'
Description: as §1, §2

[3] = biological target: T2, human ROR1 (Receptor Tyrosine Kinase-Like Orphan Receptor 1) on the cell surface (human, UniProt Q01973 30-937); assay: flow cytometry on MDA-MB-231 ROR1 low cells (about 17,000 ROR1 per cell), secondary antibody to the IgG1 Fc
T2 construct: whole, on cells; engineered into B16-F10 (high density) and LS174T (low density) cells; also called B16-F10-ROR1-H; LS174T-ROR1-L
Description: (§3) Binding of 2A11 (black line), 5A1 (dark grey line) and VHH8 (medium grey line) were tested in TCE format 12A. The commercial ROR1 specific Ab reported to bind the ROR1-Ig domain 2A2 (light grey line), served as the positive control and anti-HEL (dotted black line) served as the negative control. To better visualize binding of each test article to the three cells lines, we plotted MFI on the y-axis for each test article for HEK-293 cells (negative control; FIG. 4I), HEK-293 cells transfected with full length human ROR1 (FIG. 4J) and HEK-293 cells transfected with the ROR1 Ig domain linked to the cell surface via the GPI linker from CD59 (FIG. 4K).
(§4) Adherent target cells were collected by brief TrypLE treatment while suspension cells were directly collected. Collected cells were washed once with PBS by centrifugation at 500×g for 5 minutes at room temperature and added to V-bottom 96-well plate (200,000-300,000 cells per well). To prepared Live/Dead fixable red, one vial of powder was dissolved into 50 uL of DMSO to make stock solution and then diluted 1 uL of stock Live/Dead fixable red in 1 mL of PBS to prepare the working solution. 100 uL of Live/Dead fixable red working buffer was then added to the cell in the V-bottom 96-well plate (200,000-300,000 cells per well) and incubated for 15 minutes at room temperature. After the 15-minute incubation, the cells were washed twice with PBS by centrifugation at 500 g for 5 minutes at room temperature. The cells were then cultured with antibodies at different concentrations in 100 uL of Biolegend staining buffer at 4° C. for 45 minutes. After the 45-minute incubation with primary antibody, the cells were washed with PBS by centrifugation at 500 g for 5 minutes at room temperature. The cells were then cultured with PE-Cy7-conjugated mouse-anti-human IgG secondary antibody in Biolegend staining buffer at 4° C. for 45 minutes. […] The samples were then analyzed on Cytek flow cytometer.

[4] = biological target: T2, human ROR1 (Receptor Tyrosine …); assay: flow cytometry on MDA-MB-231 ROR1 high cells (about 500,000 ROR1 per cell), secondary antibody to the IgG1 Fc
Description: as §3, §4

[5] = biological target: T2, human ROR1 (Receptor Tyrosine …); assay: flow cytometry on MDA-MB-231 ROR1 normal cells (about 35,000 ROR1 per cell), secondary antibody to the IgG1 Fc
Description: as §3, §4

[6] = biological target: T2, human ROR1 (Receptor Tyrosine …); assay: flow cytometry on MDA-MB-231 ROR1 super high cells (about 2,000,000 ROR1 per cell), secondary antibody to the IgG1 Fc
Description: as §3, §4

T1 sequence (Q01973 30-403 limits assumed): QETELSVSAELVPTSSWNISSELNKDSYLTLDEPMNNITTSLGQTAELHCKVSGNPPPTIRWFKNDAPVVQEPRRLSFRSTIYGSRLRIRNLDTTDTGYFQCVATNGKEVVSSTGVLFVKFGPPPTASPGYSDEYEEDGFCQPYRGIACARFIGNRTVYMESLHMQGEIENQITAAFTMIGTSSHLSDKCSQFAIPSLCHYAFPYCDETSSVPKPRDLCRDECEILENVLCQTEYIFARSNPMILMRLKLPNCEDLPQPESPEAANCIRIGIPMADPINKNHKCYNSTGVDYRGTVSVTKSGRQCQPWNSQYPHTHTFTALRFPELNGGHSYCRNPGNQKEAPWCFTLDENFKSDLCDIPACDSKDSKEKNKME
T2 sequence (Q01973 30-937): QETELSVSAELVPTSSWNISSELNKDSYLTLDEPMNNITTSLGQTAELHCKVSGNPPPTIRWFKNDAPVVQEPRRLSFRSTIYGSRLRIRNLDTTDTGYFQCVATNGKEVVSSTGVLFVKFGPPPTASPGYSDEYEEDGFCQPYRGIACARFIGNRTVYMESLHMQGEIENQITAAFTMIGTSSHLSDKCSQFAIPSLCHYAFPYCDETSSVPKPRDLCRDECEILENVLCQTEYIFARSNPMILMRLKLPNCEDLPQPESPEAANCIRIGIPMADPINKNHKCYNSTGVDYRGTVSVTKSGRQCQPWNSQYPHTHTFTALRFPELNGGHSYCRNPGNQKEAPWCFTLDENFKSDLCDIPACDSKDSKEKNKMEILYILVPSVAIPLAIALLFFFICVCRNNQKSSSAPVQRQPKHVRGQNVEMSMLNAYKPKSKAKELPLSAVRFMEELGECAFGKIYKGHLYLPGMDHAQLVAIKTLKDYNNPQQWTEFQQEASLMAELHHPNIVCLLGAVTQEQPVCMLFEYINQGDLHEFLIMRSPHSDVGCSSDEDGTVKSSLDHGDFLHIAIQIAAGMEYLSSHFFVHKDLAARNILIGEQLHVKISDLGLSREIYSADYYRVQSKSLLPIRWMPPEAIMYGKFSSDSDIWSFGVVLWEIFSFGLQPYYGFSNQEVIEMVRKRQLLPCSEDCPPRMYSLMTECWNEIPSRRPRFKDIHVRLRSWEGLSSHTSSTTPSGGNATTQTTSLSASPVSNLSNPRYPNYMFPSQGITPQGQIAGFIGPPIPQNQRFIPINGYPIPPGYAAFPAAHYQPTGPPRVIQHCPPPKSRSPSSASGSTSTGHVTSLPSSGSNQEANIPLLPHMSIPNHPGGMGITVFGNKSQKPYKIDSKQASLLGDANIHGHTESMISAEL

B1: FUSE-211 (bispecific antibody, human IgG1, lambda, L234A L235A)
chain: QVQLQESGGGSVPAGGSLRLSCAASGSTYSANCMGWFRQAPGKEREEVASMSIRSGRTYYSDSVKGRFTISQDGSKNTLYLQLNSLKAEDTALYYCAAAYGGSRCVYNYRGQGTQVTVSSGGGGSGGGGSGGGGSQVQLQESGGGSVPAGGSLRLSCAASGSTYSANCMGWFRQAPGKEREEVASMSIRSGRTYYSDSVKGRFTISQDGSKNTLYLQLNSLKAEDTALYYCAAAYGGSRCVYNYRGQGTQVTVSSEPKSSDKTHTCPPCPAPEAAGGPSVFLFPPKPKDTLMISRTPEVTCVVVDVSHEDPEVKFNWYVDGVEVHNAKTKPREEQYNSTYRVVSVLTVLHQDWLNGKEYKCKVSNKALPAPIEKTISKAKGQPREPQVYTLPPSREEMTKNQVSLSCAVKGFYPSDIAVEWESNGQPENNYKTTPPVLDSDGSFFLVSKLTVDKSRWQQGNVFSCSVMHEALHNRFTQKSLSLSPGK
heavy: EVQLVESGGGLVQPGGSLRLSCAASGFTFSTYAMNWVRQAPGKGLEWVARIRSKYNNYATYYADSVKDRFTISRDDSKNTLYLQMNSLRAEDTAVYYCARHGNFGNSYVSWFAYWGQGTMVTVSSASTKGPSVFPLAPSSKSTSGGTAALGCLVKDYFPEPVTVSWNSGALTSGVHTFPAVLQSSGLYSLSSVVTVPSSSLGTQTYICNVNHKPSNTKVDKKVEPKSCDKTHTCPPCPAPEAAGGPSVFLFPPKPKDTLMISRTPEVTCVVVDVSHEDPEVKFNWYVDGVEVHNAKTKPREEQYNSTYRVVSVLTVLHQDWLNGKEYKCKVSNKALPAPIEKTISKAKGQPREPQVYTLPPSREEMTKNQVSLWCLVKGFYPSDIAVEWESNGQPENNYKTTPPVLDSDGSFFLYSKLTVDKSRWQQGNVFSCSVMHEALHNHYTQKSLSLSPGK
light: QAVVTQEPSLTVSPGGTVTLTCRSSTGAVTTSNYANWVQQKPGQAPRGLIGGTNKRAPGTPARFSGSLLGGKAALTLSGVQPEDEAEYYCALWYSNLWVFGGGTKLTVLGQPKAAPSVTLFPPSSEELQANKATLVCLISDFYPGAVTVAWKADSSPVKAGVETTTPSKQSNNKYAASSYLSLTPEQWKSHRSYSCQVTHEGSTVEKTVAPTECS
notes: Hole chain: 2A11-linker-2A11-Fc; knob chain: anti-CD3 Fab heavy chain-Fc; anti-CD3 light chain; also called format 11A incorporating 2A11
[1]
  Kd: 17000 pM
  kon: 135000 M⁻¹ s⁻¹
[2]
  koff: 0.00229 s⁻¹
[3]
  EC50: 400 pM
[4]
  EC50: 550 pM
[5]
  EC50: 450 pM
[6]
  EC50: 190 pM
